According to patent US9526766B2, “Potentiation of antibiotic treatment with a protein-lipid complex” (priority 2012, dated 2016):

Legend:
Staphylococci [1] = assay: Gentamicin, Vancomycin FL and Bocillin FL binding; assay type: cell-based, Staphylococcus aureus; conditions: for Cell-associated level of vancomycin on addition of ALAFAC / Bocillin FL association with cells on addition of ALAFAC: 100 μg/mL ALAFAC
Description: Gentamicin, Vancomycin and Bocillin FL Binding. We adapted a previously described method using AlexaFluor 488-gentamicin, vancomycin FL and Bocillin FL as reporter antibiotics to investigate association of these compounds with the staphylococcal cells. In brief, indicated strains were grown in TSB to an OD600nm of 0.5. Antibiotics were added at the following concentrations: Gentamicin at 50 μg/mL, Vancomycin FL at 20 μg/mL, Bocillin FL at 25 μg/mL alone, or in combination with ALAFAC at 100 μg/mL.
After 30 minutes, cultures were centrifuged at 9,000×g for 4 min, washed four times with PBS, and resuspended in a small volume of PBS. Cells were lysed by 5 successive freeze thaw cycles at −80° C. and 37° C. for 5 min each as described. The Bocillin FL, vancomycin FL or Alexa Fluor 488-gentamicin concentration was determined by measuring the amount of fluorescent material in a Synergy 2 microplate reader (Biotek) using excitation and emission wavelengths set at 485 and 530 nm, respectively. Linearity was obtained between 2 and 800 μg/mL; (R^2=0.9983) for AlexaFluor 488-gentamicin, between 0.5 and 100 μg/mL; (R^2=0.9928) for Bocillin FL, and between 0.25 and 50 μg/mL; (R^2=0.9919) for Vancomycin FL, with binding expressed as a ratio of the fluorescence of each sample divided with the sample protein content, determined by the 280/260 nm ratio using the using a BioTek Synergy 2 plate reader with the Take3 microdrop addition (Biotek)

NRS 384 Staphylococci = assay: Radioisotope 45Ca2+ transport assay; assay type: cell-based, Staphylococcus aureus; conditions: ALAFAC addition, Ruthenium Red 30 μM
Description: Radioisotope ^45Ca^2+ transport assays. Staphylococcus aureus was grown to log phase, washed three times and resuspended in 1×PBS containing 0.5 mM CaCl2 (CaPBS). No glucose was added in order to minimize the interference created by extrusion of Ca^2+ via ATPase pumps. ^45CaCl2 (PerkinElmer; Waltham, Mass., USA) was added to the cells at a final concentration of 2.5 μCi/mL, followed by inhibitor compound, with each addition given two minutes equilibration time. The untreated baseline sample was measured at this point. The sample was then divided, ALAFAC was added to one of the tubes, and ^45Ca^2+ uptake was measured at various intervals. For each sample, 100 μL was dispensed onto Millipore 0.3 μm PHWP filters (EMD Millipore; Billerica, Mass., USA) presoaked in CaPBS, and immediately washed with 9 mL of CaPBS via syringe filtration through Millipore Swinnex® filter holders. Filters were placed in scintillation vials with 5 mL of scintillation fluid, and CPMs were detected on a Wallac 1409 liquid scintillation counter (Wallac Oy, Turku, Finland). The results were expressed as ΔCPM that was calculated for each sample at the indicated time points as the difference between ALAFAC-treated and untreated samples.

healthy human cells = conditions: cited from earlier work
Staphylococci [2] = assay: Membrane integrity assays (propidium iodide, ATP, A260 leakage); assay type: cell-based, Staphylococcus aureus; conditions: S. aureus; data not shown
Description: Membrane Integrity Assays. To evaluate the effect of […] on membrane integrity, Staphylococci were exposed to […] and antibacterial agents at indicated concentrations for 50 minutes at 37° C. in PBS. The detergent Triton X-100 (0.1%) was used as a control, known to cause extensive membrane rupture. After treatment the leakage of soluble components (DNA RNA and protein) were measured from supernatant obtained after centrifugation of the bacterial suspension at 13,000×g for 5 min, by measuring the absorbance at 260 nm in a BioTek Synergy 2 plate reader with the Take3 microdrop addition (Biotek). Cellular release of the small molecule ATP (MW 507) that was measured from the same supernatants using the ATP determining kit (Invitrogen), which measures the luminescence of oxyluciferin produced from the oxidation of luciferin by luficerase, a process that requires ATP degradation. […] Where applicable, independent readings were also taken in the presence of antibacterial agents alone to enable corrections for potential background leakage.

Moraxella catarrhalis = conditions: 2 mg/ml; cited from earlier work

B1: ALAFAC: non-covalent complex of alpha-lactalbumin and fatty acid (oleic acid); labeled HAMLET or HL in drawings and tables (protein, UniProt P00709 20-142, looked up)
Alpha-lactalbumin: KQFTKCELSQLLKDIDGYGGIALPELICTMFHTSGYDTQAIVENNESTEYGLFQISNKLWCKSSQVPQSRNICDISCDKFLDDDITDDIMCAKKILDIKGIDYWLAHKALCTEKLEQWLCEKL
modifications: complexed with oleic acid
Staphylococci [1]; NRS384, ALAFAC 100 μg/mL, P=0.09
  Increase of cell-associated level of gentamicin by ALAFAC: 2.6 fold
Staphylococci [1]; VISA strain NRS 1
  Cell-associated level of vancomycin on addition of ALAFAC: significantly increased
Staphylococci [1]; methicillin-resistant strain NRS 384
  Bocillin FL association with cells on addition of ALAFAC: significantly increased
Staphylococci [1]; methicillin-sensitive strain
  Bocillin FL association with cells on addition of ALAFAC: no significant increase
Staphylococci [1]; vancomycin-sensitive strain
  Cell-associated level of vancomycin on addition of ALAFAC: did not increase
NRS 384 Staphylococci
  Intracellular Ca2+ (45Ca2+ uptake): rose immediately
Healthy human cells
  Toxicity: no toxicity
Staphylococci [2]
  Membrane damage (propidium iodide staining; leakage of ATP, DNA, RNA): no membrane damage
Moraxella catarrhalis
  Reduction of bacteria: less than 90%
